We go through 1 substance from article PMC2447818.

This test has as its target GFP-VIM (lens vimentin fused to green fluorescence protein) (UniProt P08670). Kind of test: FRET or BRET; FRET acceptor photobleaching by confocal laser scanning microscopy in living HeLa cells, 48 h after co-transfection; GFP fusion as donor, RFP fusion as acceptor; RFP bleached at 543 nm for 45 s in a region of interest or a whole cell; E=1 – F(GFP-min)/F(GFP-max).

RFP-αB (wild-type αB-crystallin fused to red fluorescence protein), sequence (P02511 whole entry, the tested form may be a part): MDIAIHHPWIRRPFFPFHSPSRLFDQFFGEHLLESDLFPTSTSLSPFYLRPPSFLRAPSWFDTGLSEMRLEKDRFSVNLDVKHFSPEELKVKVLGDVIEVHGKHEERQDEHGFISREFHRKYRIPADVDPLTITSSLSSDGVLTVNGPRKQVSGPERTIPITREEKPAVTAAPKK
GFP-VIM (lens vimentin fused to green fluorescence protein), sequence (P08670 2-466): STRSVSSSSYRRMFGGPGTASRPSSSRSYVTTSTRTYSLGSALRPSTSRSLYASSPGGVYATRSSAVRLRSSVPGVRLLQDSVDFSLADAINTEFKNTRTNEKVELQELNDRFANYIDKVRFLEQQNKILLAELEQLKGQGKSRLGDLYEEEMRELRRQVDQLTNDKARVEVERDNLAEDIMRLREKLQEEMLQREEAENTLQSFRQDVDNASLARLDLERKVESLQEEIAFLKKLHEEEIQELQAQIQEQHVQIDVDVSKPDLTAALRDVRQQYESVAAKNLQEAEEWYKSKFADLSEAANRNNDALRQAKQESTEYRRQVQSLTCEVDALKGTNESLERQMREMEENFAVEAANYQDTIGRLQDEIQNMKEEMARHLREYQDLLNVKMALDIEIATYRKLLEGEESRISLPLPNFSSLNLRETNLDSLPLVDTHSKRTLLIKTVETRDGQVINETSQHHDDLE

For “RFP-αB (wild-type αB-crystallin fused to red fluorescence protein) (from UniProt P02511 1-175) (natural protein)”, the FRET efficiency (one representative cell) was 9.5%.
